Reference: the supplement of paper PMC7877785
± gives the uncertainty stated by the source.

Experiment: self-splicing fitness, log relative to wild type (ln ratio); higher = more splicing; Tetrahymena group I intron in knt gene, E. coli kanamycin selection, DiMSum; sequences stand for … in CUCUCU…GGAGGGAAAAGUUAUCAGGCAUGCACCUGGUAGCUAGUCUUUAAACCAAUAGAUUGCAUCGGUUUAAAAGGCAAGACCGUCAAAUUGCGGGAAAGGGGUCAACAGCCGUUCAGUACCAAGUCUCAGGGGAAACUUUGAGAUGGCCUUGCAAAGGGUAUGGUAAUAAGCUGACGGACAUGGUCCUAACCACGCAGCCAAGUCCUAAGUCAACAGAUCUUCUGUUGAUAUGGAUGCAGUUCACAGACUAAAUGUCGGUCGGGGAAGAUGUAUUCUUCUCAUAAGAUAUAGUCGGACCUCUCCUUAAUGGGAGCUAGCGGAUGAAGUGAUGCAACACUGGAGCCGCUGGGAACUAAUUUGUAUGCGAAAGUAUAUUGAUUAGUUUUGGAGUACUCGUGGUCG
Summary of the method: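 The eight P1ex-region nucleotides of an intron in the knt kanamycin-resistance gene on pET-22b(+) were all randomised and the library put into E. coli BL21(DE3). Six replicate transformations were grown overnight at 37°C or 30°C on LB agar with or without 25 μg/mL kanamycin, together with 100 μg/mL carbenicillin, 50 μM IPTG and 0.2% rhamnose. Colonies were pooled and amplicon-sequenced on an Illumina HiSeq 2500. Fitness from DiMSum is the error-weighted combination of wild-type-normalised replicate fold changes, kanamycin over none.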

Sequence	self-splicing fitness (ln) (30 °C)	self-splicing fitness (ln) (37 °C)
AACGAGCAAUAUUACGGCGU	-1.84 ± 0.098	-0.572 ± 0.088
AACGAGCAAUAUUACGGCUG	-1.6 ± 0.14	-0.126 ± 0.16
AACGAGCAAUAUUACGGGAG	-3.14 ± 0.17	-2.72 ± 0.19
AACGAGCAAUAUUACGGGAU	-4.34 ± 0.19	-3.33 ± 0.23
AACGAGCAAUAUUACGGUUC	-2.87 ± 0.18	-2.09 ± 0.19
AACGAGCAAUAUUACGUAAA	-3 ± 0.24	-2.49 ± 0.33
AACGAGCAAUAUUACGUAGC	-3.51 ± 0.19	-2.44 ± 0.17
AACGAGCAAUAUUACGUCAA	-3.08 ± 0.23	-3.35 ± 0.3
AACGAGCAAUAUUACGUGAU	-3.03 ± 0.18	-0.913 ± 0.13
AACGAGCAAUAUUACGUUCU	-2.19 ± 0.14	-1.93 ± 0.2
AACUAGCAAUAUUACGACGC	-0.567 ± 0.1	-0.205 ± 0.15
AACUAGCAAUAUUACGACGU	-0.165 ± 0.069	0.653 ± 0.1
AACUAGCAAUAUUACGCCAG	-1.99 ± 0.16	-0.848 ± 0.23
AACUAGCAAUAUUACGCCAU	-2.6 ± 0.15	-2.42 ± 0.18
AACUAGCAAUAUUACGCCCA	-0.951 ± 0.14	0.0227 ± 0.17
AACUAGCAAUAUUACGCCCC	0.0551 ± 0.17	-0.32 ± 0.18
AACUAGCAAUAUUACGCCUU	-0.414 ± 0.073	0.376 ± 0.1
AACUAGCAAUAUUACGCGCU	-1.79 ± 0.12	-0.454 ± 0.12
AACUAGCAAUAUUACGCUGA	-2.18 ± 0.14	-1.91 ± 0.13
AACUAGCAAUAUUACGGAAA	-2.54 ± 0.2	-0.697 ± 0.13
AACUAGCAAUAUUACGGCAC	-0.766 ± 0.079	-0.192 ± 0.11
AACUAGCAAUAUUACGGCAU	-0.42 ± 0.062	-0.127 ± 0.075
AACUAGCAAUAUUACGUAAC	0.169 ± 0.15	-1.5 ± 0.3
AACUAGCAAUAUUACGUACU	-0.0487 ± 0.053	0.151 ± 0.073

Sequence	self-splicing fitness (ln) (30 °C)	self-splicing fitness (ln) (37 °C)
AACUAGCAAUAUUACGUAUC	-3.83 ± 0.34	-2.38 ± 0.29
AACUAGCAAUAUUACGUAUU	-2.04 ± 0.082	-0.837 ± 0.11
AACUAGCAAUAUUACGUGCU	-2.24 ± 0.083	-1.97 ± 0.12
AACUAGCAAUAUUACGUGGG	-3.79 ± 0.23	-2.38 ± 0.17
AAGAAGCAAUAUUACGAAGG	-3.33 ± 0.38	-2.01 ± 0.36
AAGAAGCAAUAUUACGACUA	0.152 ± 0.072	0.144 ± 0.1
AAGAAGCAAUAUUACGCACG	-1.26 ± 0.082	-0.749 ± 0.12
AAGAAGCAAUAUUACGCAUA	-1.29 ± 0.11	-0.0901 ± 0.12
AAGAAGCAAUAUUACGCUCG	-0.487 ± 0.078	-0.257 ± 0.12
AAGAAGCAAUAUUACGCUUU	-4.1 ± 0.42	-2.58 ± 0.21
AAGAAGCAAUAUUACGGCCA	-0.587 ± 0.097	-0.00293 ± 0.12
AAGAAGCAAUAUUACGGCGG	-0.903 ± 0.1	-0.664 ± 0.12
AAGAAGCAAUAUUACGGGCA	-0.698 ± 0.092	-0.225 ± 0.11
AAGAAGCAAUAUUACGGGGC	–	-2.95 ± 0.26
AAGAAGCAAUAUUACGGUUU	-1.44 ± 0.068	-0.413 ± 0.087
AAGAAGCAAUAUUACGUCAG	-2.66 ± 0.2	-1.91 ± 0.16
AAGAAGCAAUAUUACGUCAU	-1.81 ± 0.075	-1.04 ± 0.1
AAGAAGCAAUAUUACGUCGA	-0.754 ± 0.097	0.0801 ± 0.14
AAGAAGCAAUAUUACGUUAA	-2.77 ± 0.16	-0.841 ± 0.11
AAGAAGCAAUAUUACGUUUG	-2.45 ± 0.12	-2.26 ± 0.18
AAGCAGCAAUAUUACGAAUG	-3.74 ± 0.18	-2.45 ± 0.16
AAGCAGCAAUAUUACGACCU	0.301 ± 0.08	0.149 ± 0.11
AAGCAGCAAUAUUACGAUAA	-1.69 ± 0.12	-1.16 ± 0.13
AAGCAGCAAUAUUACGAUAU	-0.287 ± 0.076	-0.0114 ± 0.099
